Two molecules from PMC12719032, “Structural and biophysical insights into RomR, MglB, and MglC interactions involved in regulating cell polarity in Myxococcus xanthus” (The Journal of Biological Chemistry, 2025) can be followed below.

The chains are these.
B1: RomR^371-420 (C-terminal helix of RomR, residues 371-420) (domain or fragment, M. xanthus, UniProt Q1D3Z1 371-420, looked up)
chain: DGGEALLREALSKASREVIEKIAWEVVPQLAETIIREELERLIKDRETQH
notes: synthetic gene from Invitrogen, cloned in pET-Duet-A with a TEV site; no tag cleavage is described; Trimer by SEC-SAXS; also called RomR C-terminal helix; helical domain of RomR; source: E. coli Rosetta (DE3), purified (Ni-NTA, SEC); not shown: His tag, N-terminal, kept
B2: MglC (mutual gliding-motility protein C) (natural protein, M. xanthus, UniProt Q1D0B6 1-120, looked up)
chain: MSFRTHLESVVNQVEGALACSVMGFDGISVDTFQKDESAELDLNGAWVEYANLLTQLRNAAETLKTGTVSEVSVNSEKVLTVMRLVSPDYFLVLALHADGNFGKGRYVLRVTAPKVRAEL
notes: MglC of Myxococcus xanthus (DSM no. 16526, type strain), Uniprot ID Q1D0B6; Homodimer by ASEC and SEC-SAXS; source: E. coli Rosetta (DE3), purified (Ni-NTA, SEC)

For data set [1], the target named is T1, MglB-MglC complex (preformed) (M. xanthus, UniProt Q1DB03 1-159; Q1D0B6 1-120).
T1 construct: MglB of Myxococcus xanthus, Uniprot ID Q1DB03; as m7; MglC of Myxococcus xanthus, Uniprot ID Q1D0B6; as m1; also called MglBC; source: purified proteins from E. coli Rosetta (DE3), MglB and MglC premixed in a 2:1 ratio; copies: 4 + 2
T1 sequence (looked up) 1: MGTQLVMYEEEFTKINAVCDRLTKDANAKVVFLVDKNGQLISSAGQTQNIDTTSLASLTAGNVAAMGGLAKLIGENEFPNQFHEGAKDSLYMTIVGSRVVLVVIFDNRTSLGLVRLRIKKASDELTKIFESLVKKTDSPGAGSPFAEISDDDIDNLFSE
T1 sequence (looked up) 2: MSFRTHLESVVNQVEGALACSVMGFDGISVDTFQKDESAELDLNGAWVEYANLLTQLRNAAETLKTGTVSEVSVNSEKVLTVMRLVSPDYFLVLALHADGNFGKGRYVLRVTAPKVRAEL
Nature of the data set: ITC; MglB and MglC premixed 2:1; 25 μM of the complex in the cell titrated with 300 μM RomR^371-420; one-site model; triplicate. Conditions: both partners purified.

Data set [2] addresses B2. Nature of the data set: ITC; MicroCal Auto-iTC200; 50 μM RomR^327-420/RomR^371-420 in the cell titrated with 500 μM MglC; 30 injections; one-site model; triplicate. Conditions: both partners purified. Background: ITC needs no label: the signal is the heat of the interaction.
Data set [3] concerns the molecule itself. Briefly: SEC-SAXS; BM29, ESRF; Advance BioSEC 300 column; 20 mM Hepes pH 8.0, 150 mM NaCl, 10% glycerol; Mw from Porod volume, fits of models to the scattering data. (In general: Size exclusion chromatography separates by hydrodynamic size, large species first.)
Data set [4] addresses B2. Briefly: BLI; Octet RED 96; RomR^327-420/RomR^371-420 immobilised on AR2G sensors by EDC/NHS; MglC in solution; 20 mM HEPES pH 8.0, 150 mM NaCl, 10% glycerol; 1:1 binding model. Conditions: both partners purified. A general note: In BLI a coated tip is dipped into the sample, and binding shifts an interference pattern.
Data set [5] concerns the target T1, MglB-MglC complex (preformed). Briefly: BLI; Octet RED 96; RomR^371-420 immobilised on AR2G sensors by EDC/NHS; MglB-MglC complex in solution; 20 mM HEPES pH 8.0, 150 mM NaCl, 10% glycerol; 2:1 (heterogeneous ligand) model and steady state analysis. The conditions noted are these: both partners purified.
The target in data set [6] is RomR^327-420 (C-terminal region of RomR, residues 327-420) (M. xanthus). Nature of the data set: ITC; MicroCal Auto-iTC200; 50 μM RomR^327-420/RomR^371-420 in the cell titrated with 500 μM MglC; 30 injections; one-site model; triplicate.
For data set [7], the target named is B1. The data set is described as above. The conditions noted are these: both partners purified.
Data set [8] concerns the target RomR^327-420 (C-terminal region of RomR, residues 327-420) (M. xanthus). Nature of the data set: BLI; Octet RED 96; RomR^327-420/RomR^371-420 immobilised on AR2G sensors by EDC/NHS; MglC in solution; 20 mM HEPES pH 8.0, 150 mM NaCl, 10% glycerol; 1:1 binding model.

Consider B1, for which, in data set [1], the Kd – broadly, the equilibrium constant for the complex coming apart – is around 150 nM and the dH was -6.07 kcal/mol. The Kd in data set [2] was 2.6 nM. In addition, the stoichiometry N (in general, the number of molecules, sites or subunits per partner or assembly) in data set [3] was determined as 3. In data set [4], the Kd amounted to 2.8 nM; the koff (usually a measure of how fast the partners let go of each other) came to 0.000652 s⁻¹; the kon (as a rule, a measure of how fast the partners come together) was 228000 M⁻¹ s⁻¹. Besides, the Kd in data set [5] turned out to be 280 nM.

In data set [6], B2 registered a Kd of 4.2 nM and a stoichiometry N of 0.67. Further, in data set [7], the dH is -2.59 kcal/mol and the “stoichiometry N” value was found to be 0.65. In data set [8], this molecule returned a Kd of 5.5 nM, a koff of 0.000805 s⁻¹ and a kon of 146000 M⁻¹ s⁻¹. Besides, in data set [3], the “stoichiometry N” value was 2.
